Assay results: the nanobody polyreactivity screen of Harvey et al. (2022)

Assay: yeast display, Sf9 membrane polyspecificity reagent, FACS + sequencing; frameworks hold sequencing errors
Summary of the method: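 A nanobody's polyreactivity label depends on the gate it was sorted from. Yeast display cells were stained with 10% biotinylated, detergent-solubilized Sf9 membrane reagent for 1 hour at 4 °C, enriched on streptavidin microbeads and sorted by FACS. The low and high (top ~1%) gates were set on anti-HA fluorescence for expression and streptavidin fluorescence for reagent binding.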

| Sequence | polyreactivity (PSR sort gate) |
| --- | --- |
| QVQLVESGGGLVQAGGSLRLSCAASGSIFWSNAMGWYRQAAGKERELVASITRSGGSTYYADSVKGRFTISRDNAKNTVYLQMNSLKPEDTAVYYCAARTRGSSYHFDYWGQGTQVTVSS | high polyreactivity |
| QVQLVESGGGLVQAGGSLRLSCAASGSIFWSNAMGWYRQAPGKEREFVAAITWSGDNTYYADSVKGRFTISRDNAKNTVYLQMNSLKPEDTAVYYCNTEWGLFYDWTVLHIYLHGYYYWGQGTQVTVSS | low polyreactivity |
| QVQLVESGGGLVQAGGSLRLSCAASGSIFWSNSMGWDRQAPGKERELDAAISQDGGSTNYADSVKGRFTISRDNAKNTVYLQMTSQKPEDTAVYYCAVKYWSYEPPSYSIEYGYWGQGTQVTVSS | low polyreactivity |
| QVQLVESGGGLVQAGGSLRLSCAASGSIFWSYAMGWYRQAPGKEREFVAAIRGRGGNTYADSVKGRFTISRDNAKNTVYLQMNSLKPEDTAVYYCAAPLLRDLRSPYSYNYWGQGTQVTVSS | low polyreactivity |
| QVQLVESGGGLVQAGGSLRLSCAASGSIFWSYDMGWYRQAPGKERELVPTITSGDSTYYADSVKGRFTISRDNAKNTVYLQMNSLKPEDTAVYYCAAGTYYRRTYWHREYDYWGQGTQVTVSS | low polyreactivity |
| QVQLVESGGGLVQAGGSLRLSCAASGSIFWSYGMGWYIQAPGKERELVASTRYADSVKERFTISRDNAKNTVYLLMNSLKPEDTAVYYCAADVWTLDPDEYDYWGQGTQVTVSS | low polyreactivity |
| QVQLVESGGGLVQAGGSLRLSCAASGSIFWSYGMGWYRQAPGKERELVASTRYADSVKGRFTISRDNAKNTVYLQMNSLKPEDTAVYYCNVRYYGYRFGDDYWGQGTQVTVSS | low polyreactivity |
| QVQLVESGGGLVQAGGSLRLSCAASGSIFWTNAMGCYIQAPGKERELVAAITGGGTTYYADSVKGRFTISRDNAKNTVYLQMNSLKPEDTAVVYTVSSAQYDYWGQGTQVTVSS | low polyreactivity |
| QVQLVESGGGLVQAGGSLRLSCAASGSIFWTYAMGWYRQAPGKERELVAAITTGGSTYYADSVKGRFTISRDNAKNTVYLQMNSLKPEDTAVYYCAVDHLTRSGDGEYWGQGTQVTVSS | high polyreactivity |
| QVQLVESGGGLVQAGGSLRLSCAASGSIFWWNAMGWYRQAPGKERELVGAITVSGSSTHYADSVKGRFTISRDNAKNTVYLQMNSMKPEDTAVYYWGQGTQVTVSS | low polyreactivity |
| QVQLVESGGGLVQAGGSLRLSCAASGSIFWYNAMAWYRQAPGKERELVAAITGTGDRTYYADSVKGRFTISRDNAKNSVYLQMNSLKPEDSAVYYCAAAYGAYYPWGYDYWGQGTQVTVSS | low polyreactivity |
| QVQLVESGGGLVQAGGSLRLSCAASGSIFWYNAMGWYRQAPGKEREFVATITNGTTTNYADSVKGRFTISCDNAKNTVYLQMNSLKPEDTAVYFCAVTGVYVKYDYWGQGTHVTVSS | low polyreactivity |
| QVQLVESGGGLVQAGGSLRLSCAASGSIFWYYAMGWYRQAPGKERELVAAISSGGSTNYADSVKGRFTISRDNAKNTVYLQMNSLKPEDTAVYYCAAGYAVSWYSAYDSGYWGQCTQVTVSS | low polyreactivity |
| QVQLVESGGGLVQAGGSLRLSCAASGSIFWYYAMGWYRQAPGKERELVAAISTSGTSTYYADSVKGRFTISRDNAKNTVYLQMNSLKPEDSAVYYCAKRSGARHRLMDYWGQGTQVTVSS | low polyreactivity |
| QVQLVESGGGLVQAGGSLRLSCAASGSIFWYYVMGWYRQAPGKERELVAAITISGAGTYYADSVKGRFTISRDNAKNTVYLQMNSLKPEDTAVYYCAARLLGHFYPFFLQGLSGFDYWGQGTQVTVSS | low polyreactivity |
| QVQLVESGGGLVQAGGSLRLSCAASGSIFYANAMGWYRQAPGKERELVAAISRSGGRTYYADSVKGRFTISRDNAKNTVYLQMNSLKPEDTAVYYCNAVYVSYTYQQTRPRYYYWGQGTQVTVSS | high polyreactivity |
| QVQLVESGGGLVQAGGSLRLSCAASGSIFYAYALGWYRQAPGKERELVAVISRGGITNYADSVKGRFTISRDNAKNTVYLQMNSLKPEDNAVYYCAAATSACGYLRRYGYWGQGTQVTVSS | low polyreactivity |
| QVQLVESGGGLVQAGGSLRLSCAASGSIFYAYAMGWSRQAPGKERELVATISSVGSTYYADSVKGRFTISRDNAKNTVYLQMNSLKPEDTAVYYCAKPRIVVYKTGYDYWGQGTQVTVSS | low polyreactivity |
| QVQLVESGGGLVQAGGSLRLSCAASGSIFYAYAMGWYRQAPGKEREFVAVISRGGITNYADSVKGRFTISRDNAKNTVYLQMNSLKPEDTAVYYCAAATSAWGYLRRYGYWGQGTQVTVSS | low polyreactivity |
| QVQLVESGGGLVQAGGSLRLSCAASGSIFYAYAMGWYRQAPGKERELVAAISSDGSTYYADSVKGRFTISRDNAKNTVYLQMTSLKPEDTAVYYCAASVLAPNAVSGSDYWGQGTQVTVSS | low polyreactivity |
| QVQLVESGGGLVQAGGSLRLSCAASGSIFYAYVMGWYRQAPGKERELVAAISSGGSTYYADSVKGRFTISRDNAKNTVYLQMNSLKPEDTAVYYCAVGRPSGWSYYTGGDYWGQGTQVTVSS | high polyreactivity |
